Molecular target: the molecule itself
Assay: SAXS; proteins in solution, 50 mM PBS, pH 7.4; concentrated to 1 mg/liter; 20 °C; SIBYLS beam line 12.3.1; Guinier plots and pair-density distributions compared with the crystal structures

B1: dimeric mature leukocyte myeloperoxidase (complex)
light: not shown
heavy: TGVNCETSCVQQPPCFPLKIPPNDPRIKNQADCIPFFRSCPACPGSNITIRNQINALTSFVDASMVYGSEEPLARNLRNMSNQLGLLAVNQRFQDNGRALLPFDNLHDDPCLLTNRSARIPCFLAGDTRSSEMPELTSMHTLLLREHNRLATELKSLNPRWDGERLYQEARKIVGAMVQIITYRDYLPLVLGPTAMRKYLPTYRSYNDSVDPRIANVFTNAFRYGHTLIQPFMFRLDNRYQPMEPNPRVPLSRVFFASWRVVLEGGIDPILRGLMATPAKLNRQNQIAVDEIRERLFEQVMRIGLDLPALNMQRSRDHGLPGYNAWRRFCGLPQPETVGQLGTVLRNLKLARKLMEQYGTPNNIDIWMGGVSEPLKRKGRVGPLLACIIGTQFRKLRDGDRFWWENEGVFSMQQRQALAQISLPRIICDNTGITTVSKNNIFMSNSYPRDFVNCSTLPALNLASWREAS
modifications: heme covalently bound | glycosylated; heme covalently bound; interchain disulfide Cys-319-Cys-319 between the two H-chains
notes: Myeloperoxidase, human, 14.5-kDa light polypeptide (L-chain) of mature MPO; three N termini found by mass spectrometry: Gly-164, Val-165 and Thr-166; ends before the excised peptide that begins at Ala-273; numbers on the 745-aa primary translation product; Myeloperoxidase, human, 59-kDa heavy polypeptide (H-chain) of mature MPO; three N termini found by mass spectrometry: Thr-277, Gly-278 and …
  stoichiometry N: 2
